Data taken from patent US20230406950A1 (LYVGEN BIOPHARMA, published 2023).

Tests used:
[1] = target: T1, human PD-1 expressed on cells (human, UniProt Q15116 25-288); experiment: flow cytometry (FACS), MFI, CHO cells expressing human PD-1
T1 construct: whole, on cells; also called human PD-1 over-expressed on the CHO cells; Jurkat/NFkB-Luci/PD-1 cells
Method: (§1) Exemplary anti-PD-1/CD137 bi-specific antibodies were analyzed by FACS for their binding properties to human PD-1 and/or human CD137 expressed on CHO cells. Briefly, cultured cells were harvested, counted and cell viability was evaluated using the Trypan Blue exclusion method. Viable cells were then adjusted to 2×10⁶ cells per mL in PBS containing 2% BSA. 100 μL of this cell suspension were further aliquoted per well into a V-bottom 96-well plate. […] After incubation for 2 hours at 4° C., cells were centrifuged (3 min, 1000× g), washed with 250 μL/well BSA-containing FACS Stain Buffer, resuspended and incubated for an additional 1 hour at 4° C. with 100 μL/well fluorochrome-conjugated anti-IgG antibody for detection of the bisepecific antibody. Cells were then washed with 250 μL/well BSA-containing FACS Stain Buffer, resuspended in 100 μL/well FACS Stain Buffer, acquired and analyzed using a FACS machine. Binding of the bispecific antibodies to human PD-1 or human CD137 expressing CHO cells were evaluated and the mean fluorescence intensity is plotted in histograms or dot plots.

[2] = target: T2, human CD137 expressed on cells (human, UniProt Q07011 24-255); experiment: flow cytometry (FACS), MFI, CHO cells expressing human CD137
T2 construct: whole, on cells; also called 4-1BB; TNFRSF9
T2 sequence (Q07011 24-255): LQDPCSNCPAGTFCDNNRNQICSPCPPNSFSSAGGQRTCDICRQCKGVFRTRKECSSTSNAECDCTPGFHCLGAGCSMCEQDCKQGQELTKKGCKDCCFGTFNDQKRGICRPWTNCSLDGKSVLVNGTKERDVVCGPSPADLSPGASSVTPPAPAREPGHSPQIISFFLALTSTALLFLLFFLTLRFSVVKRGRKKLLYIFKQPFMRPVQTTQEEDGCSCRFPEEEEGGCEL
Method: as §1

[3] = target: T3, human CD137 ECD protein (His tag) (human, UniProt Q07011 24-186); experiment: bridging ELISA: human CD137 ECD (His tag) coated, antibody titrated, then human PD-1 ECD (mouse IgG2a Fc tag), HRP anti-mouse IgG2a Fc; A450-A620
T3 construct: extracellular domain; also called recombinant human CD137; not shown: His tag
Method: Exemplary anti-PD-1/CD137 bi-specific antibodies were analyzed by ELISA for their simultaneous binding to recombinant human PD-1 and human CD137. Briefly, human CD137 ECD protein (His tag) was diluted and coated onto an ELISA plate with a volume of 100 μL/well by incubation at 4° C. overnight. The next day, the plate was blocked with PBST-BSA buffer, then serially diluted samples of anti-PD-1/CD137 bi-specific antibodies were pipetted into appropriate wells at 50 μL/well, and the plate was incubated for 1 hour followed by washing. The extracellular domain (ECD) of human PD-1 protein (mouse IgG2a Fc tag) was added into the plate at 50 μL/well. After 1-hour incubation at room temperature, HRP-conjugated anti-Mouse IgG, Fc G2a specific antibody was added into the plate at 100 μL/well. The plate was incubated for 1 hour at room temperature followed by washing. TMB substrate solution was added at 100 μL/well and the color development was stopped by adding 100 uL/well Stop Solution (2N H₂SO₄). Absorbance at 450 nm and 620 nm was read by Tecan F200 Pro plate reader. GraphPad 7.0, “[Agonist] vs. response—Variable slope (four parameters)” was used to plot the binding data and calculate binding EC50 values.

[4] = target: T4, human CD40 expressed on CHO cells (human, UniProt P25942 21-277); experiment: FACS on CHO cells expressing human CD40 (MFI)
T4 construct: whole, on cells
T4 sequence (P25942 21-277): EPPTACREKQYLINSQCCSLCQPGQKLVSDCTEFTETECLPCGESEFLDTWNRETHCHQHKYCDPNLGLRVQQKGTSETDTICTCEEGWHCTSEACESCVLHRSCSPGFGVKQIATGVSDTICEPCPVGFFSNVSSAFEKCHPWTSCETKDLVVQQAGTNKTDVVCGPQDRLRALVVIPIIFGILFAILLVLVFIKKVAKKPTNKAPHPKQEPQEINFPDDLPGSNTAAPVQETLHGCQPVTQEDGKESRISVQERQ
Method: as §1, with “Anti-CD40/CD137” for “Exemplary anti-PD-1/CD137”, “CD40” for “PD-1”, “1000×g),” for “1000× g),”

[5] = target: T2, human CD137 expressed on cells; experiment: FACS on CHO cells expressing human CD137 (MFI)
Method: as §1, with “Anti-CD40/CD137” for “Exemplary anti-PD-1/CD137”, “CD40” for “PD-1”, “1000×g),” for “1000× g),”

T1 sequence (Q15116 25-288): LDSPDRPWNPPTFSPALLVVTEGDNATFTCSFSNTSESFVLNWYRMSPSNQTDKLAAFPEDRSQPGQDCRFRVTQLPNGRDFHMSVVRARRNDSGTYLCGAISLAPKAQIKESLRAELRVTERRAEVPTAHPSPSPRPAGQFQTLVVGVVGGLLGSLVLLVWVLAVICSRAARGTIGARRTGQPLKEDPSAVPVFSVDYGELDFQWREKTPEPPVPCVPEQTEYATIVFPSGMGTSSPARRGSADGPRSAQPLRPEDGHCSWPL

EC50 (read off the curve) [1] [µg/mL] | EC50 (read off the curve) [2] [µg/mL] | EC50 (read off the curve) [3] [µg/mL] | binding result [4] | EC50 (read off the curve) [5] [µg/mL] | Binder
~0.2 | ~0.2 | ~0.02 | – | – | Ly457 (bispecific antibody, human IgG1, kappa, Anti-PD-1/CD137: Ly516 heavy chain fused to Ly1630 scFv (VH-VL); Ly516 light chain) heavy: QVTLKESGPALVKPTQTLTLTCTFSGFSLSTSGTCVSWIRQPPGKALEWLATICWEDSKGYNPSLKSRLTISKDTSKNQAVLTMTNMDPVDTATYYCARREDSGYFWFPYWGQGTLVTVSSASTKGPSVFPLAPSSKSTSGGTAALGCLVKDYFPEPVTVSWNSGALTSGVHTFPAVLQSSGLYSLSSVVTVPSSSLGTQTYICNVNHKPSNTKVDKKVEPKSCDKTHTCPPCPAPELLGPSVFLFPPKPKDTLMISRTPEVTCVVVDVSHEDPEVKFNWYVDGVEVHNAKTKPREEQYNSTYRVVSVLTVLHQDWLNGKEYKCKVSNKALPAPIEKTISKAKGQPREPQVYTLPPSREEMTKNQVSLTCLVKGFYPSDIAVEWESNGQPENNYKTTPPVLDSDGSFFLYSKLTVDKSRWQQGNVFSCSVMHEALHNHYTQKSLSLSPGGGGGSGGGGSGGGGSGGGGSQVQLVQSGAEVKKPGASVKVSCKASGYTFAGFEMHWVRQAPGQGLEWMGAIDPKTGGTDYNQKFKDRVTMTRDTSISTAYMELSRLRSDDTAVYYCARDLGYFDVWGQGTLVTVSSGGGGSGGGGSGGGGSGGGGSDIQMTQSPSSLSASVGDRVTITCRASQDIRSNLNWYQQKPGGAVKLLIYYTSRLHSGVPSRFSGSGSGTDYTLTISSLQPEDFATYFCQQSEKLPRTFGGGTKVEIR light: NIQMTQSPSSLSASVGDRVTITCKAGQNVNNYLAWYQQKPGKAPKVLIFNANSLQTGVPSRFSGSGSGTDFTLTISSLQPEDFATYYCQQYNSWPTFGGGTKVEIKRTVAAPSVFIFPPSDEQLKSGTASVVCLLNNFYPREAKVQWKVDNALQSGNSQESVTEQDSKDSTYSLSSTLTLSKADYEKHKVYACEVTHQGLSSPVTKSFNRGEC
~0.2 | ~0.2 | ~0.02 | – | – | Ly458 (bispecific antibody, human IgG1, kappa, Anti-PD-1/CD137: Ly516 heavy chain; Ly516 light chain fused to Ly1630 scFv (VL-VH)) heavy: QVTLKESGPALVKPTQTLTLTCTFSGFSLSTSGTCVSWIRQPPGKALEWLATICWEDSKGYNPSLKSRLTISKDTSKNQAVLTMTNMDPVDTATYYCARREDSGYFWFPYWGQGTLVTVSSASTKGPSVFPLAPSSKSTSGGTAALGCLVKDYFPEPVTVSWNSGALTSGVHTFPAVLQSSGLYSLSSVVTVPSSSLGTQTYICNVNHKPSNTKVDKKVEPKSCDKTHTCPPCPAPELLGPSVFLFPPKPKDTLMISRTPEVTCVVVDVSHEDPEVKFNWYVDGVEVHNAKTKPREEQYNSTYRVVSVLTVLHQDWLNGKEYKCKVSNKALPAPIEKTISKAKGQPREPQVYTLPPSREEMTKNQVSLTCLVKGFYPSDIAVEWESNGQPENNYKTTPPVLDSDGSFFLYSKLTVDKSRWQQGNVFSCSVMHEALHNHYTQKSLSLSPGK light: NIQMTQSPSSLSASVGDRVTITCKAGQNVNNYLAWYQQKPGKAPKVLIFNANSLQTGVPSRFSGSGSGTDFTLTISSLQPEDFATYYCQQYNSWPTFGGGTKVEIKRTVAAPSVFIFPPSDEQLKSGTASVVCLLNNFYPREAKVQWKVDNALQSGNSQESVTEQDSKDSTYSLSSTLTLSKADYEKHKVYACEVTHQGLSSPVTKSFNRGECGGGGSGGGGSGGGGSGGGGSDIQMTQSPSSLSASVGDRVTITCRASQDIRSNLNWYQQKPGGAVKLLIYYTSRLHSGVPSRFSGSGSGTDYTLTISSLQPEDFATYFCQQSEKLPRTFGGGTKVEIRGGGGSGGGGSGGGGSGGGGSQVQLVQSGAEVKKPGASVKVSCKASGYTFAGFEMHWVRQAPGQGLEWMGAIDPKTGGTDYNQKFKDRVTMTRDTSISTAYMELSRLRSDDTAVYYCARDLGYFDVWGQGTLVTVSS
~0.2 | ~0.2 | ~0.02 | – | – | Ly459 (bispecific antibody, human IgG1, kappa, Anti-PD-1/CD137: Ly516 heavy chain; Ly516 light chain fused to Ly1630 scFv (VH-VL)) heavy: QVTLKESGPALVKPTQTLTLTCTFSGFSLSTSGTCVSWIRQPPGKALEWLATICWEDSKGYNPSLKSRLTISKDTSKNQAVLTMTNMDPVDTATYYCARREDSGYFWFPYWGQGTLVTVSSASTKGPSVFPLAPSSKSTSGGTAALGCLVKDYFPEPVTVSWNSGALTSGVHTFPAVLQSSGLYSLSSVVTVPSSSLGTQTYICNVNHKPSNTKVDKKVEPKSCDKTHTCPPCPAPELLGPSVFLFPPKPKDTLMISRTPEVTCVVVDVSHEDPEVKFNWYVDGVEVHNAKTKPREEQYNSTYRVVSVLTVLHQDWLNGKEYKCKVSNKALPAPIEKTISKAKGQPREPQVYTLPPSREEMTKNQVSLTCLVKGFYPSDIAVEWESNGQPENNYKTTPPVLDSDGSFFLYSKLTVDKSRWQQGNVFSCSVMHEALHNHYTQKSLSLSPGK light: NIQMTQSPSSLSASVGDRVTITCKAGQNVNNYLAWYQQKPGKAPKVLIFNANSLQTGVPSRFSGSGSGTDFTLTISSLQPEDFATYYCQQYNSWPTFGGGTKVEIKRTVAAPSVFIFPPSDEQLKSGTASVVCLLNNFYPREAKVQWKVDNALQSGNSQESVTEQDSKDSTYSLSSTLTLSKADYEKHKVYACEVTHQGLSSPVTKSFNRGECGGGGSGGGGSGGGGSGGGGSQVQLVQSGAEVKKPGASVKVSCKASGYTFAGFEMHWVRQAPGQGLEWMGAIDPKTGGTDYNQKFKDRVTMTRDTSISTAYMELSRLRSDDTAVYYCARDLGYFDVWGQGTLVTVSSGGGGSGGGGSGGGGSGGGGSDIQMTQSPSSLSASVGDRVTITCRASQDIRSNLNWYQQKPGGAVKLLIYYTSRLHSGVPSRFSGSGSGTDYTLTISSLQPEDFATYFCQQSEKLPRTFGGGTKVEIR

Further lines, the binder ahead of its results:

Binder | EC50 (read off the curve) [1] [µg/mL] | EC50 (read off the curve) [2] [µg/mL] | EC50 (read off the curve) [3] [µg/mL] | binding result [4] | EC50 (read off the curve) [5] [µg/mL]
Ly740 (bispecific antibody, human IgG1, kappa, Anti-CD40/CD137: Ly1630 heavy chain; Ly1630 light chain fused to Ly253 scFv (VL-VH)) heavy: QVQLVQSGAEVKKPGASVKVSCKASGYTFAGFEMHWVRQAPGQGLEWMGAIDPKTGGTDYNQKFKDRVTMTRDTSISTAYMELSRLRSDDTAVYYCARDLGYFDVWGQGTLVTVSSASTKGPSVFPLAPSSKSTSGGTAALGCLVKDYFPEPVTVSWNSGALTSGVHTFPAVLQSSGLYSLSSVVTVPSSSLGTQTYICNVNHKPSNTKVDKKVEPKSCDKTHTCPPCPAPELLGPSVFLFPPKPKDTLMISRTPEVTCVVVDVSHEDPEVKFNWYVDGVEVHNAKTKPREEQYNSTYRVVSVLTVLHQDWLNGKEYKCKVSNKALPAPIEKTISKAKGQPREPQVYTLPPSREEMTKNQVSLTCLVKGFYPSDIAVEWESNGQPENNYKTTPPVLDSDGSFFLYSKLTVDKSRWQQGNVFSCSVMHEALHNHYTQKSLSLSPGK light: not shown | – | – | – | binds | ~0.04
Ly741 (bispecific antibody, human IgG1, kappa, Anti-CD40/CD137: Ly1630 heavy chain; Ly1630 light chain fused to Ly253 scFv (VH-VL)) heavy: QVQLVQSGAEVKKPGASVKVSCKASGYTFAGFEMHWVRQAPGQGLEWMGAIDPKTGGTDYNQKFKDRVTMTRDTSISTAYMELSRLRSDDTAVYYCARDLGYFDVWGQGTLVTVSSASTKGPSVFPLAPSSKSTSGGTAALGCLVKDYFPEPVTVSWNSGALTSGVHTFPAVLQSSGLYSLSSVVTVPSSSLGTQTYICNVNHKPSNTKVDKKVEPKSCDKTHTCPPCPAPELLGPSVFLFPPKPKDTLMISRTPEVTCVVVDVSHEDPEVKFNWYVDGVEVHNAKTKPREEQYNSTYRVVSVLTVLHQDWLNGKEYKCKVSNKALPAPIEKTISKAKGQPREPQVYTLPPSREEMTKNQVSLTCLVKGFYPSDIAVEWESNGQPENNYKTTPPVLDSDGSFFLYSKLTVDKSRWQQGNVFSCSVMHEALHNHYTQKSLSLSPGK light: not shown | – | – | – | binds | ~0.04
Ly742 (bispecific antibody, human IgG1, kappa, Anti-CD40/CD137: Ly253-derived heavy chain fused to Ly1630 scFv (VL-VH); Ly253 light chain) heavy: not shown light: DIQMTQSPSSVSASVGDRVTITCRASQGIYSWLAWYQQKPGKAPNLLIYTASTLQSGVPSRFSGSGSGTDFTLTISSLQPEDFATYYCQQANIFPLTFGGGTKVEIKRTVAAPSVFIFPPSDEQLKSGTASVVCLLNNFYPREAKVQWKVDNALQSGNSQESVTEQDSKDSTYSLSSTLTLSKADYEKHKVYACEVTHQGLSSPVTKSFNRGEC | – | – | – | binds | ~0.07
